We go through 17 molecules from US20160297884A1 (Pfizer, published 2016).

T1: Human BCMA (human, UniProt Q02223 1-54, limits assumed)
T1 construct: Soluble analyte in SPR; construct not described; also called huBCMA; B-cell maturation antigen
T1 sequence (looked up): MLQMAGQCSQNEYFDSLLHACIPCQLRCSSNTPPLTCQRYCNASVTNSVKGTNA

B1: L1.GDF/L3.KW/H3.AL (antibody, V domains shown)
VH: EVQLLESGGGLVQPGGSLRLSCAASGFTFGSYAMTWVRQAPGKGLEWVSAISGSGGNTFYADSVKGRFTISRDNSKNTLYLQMNSLRAEDTAVYYCARVSPIAALMDYWGQGTLVTVSS
VL: EIVLTQSPGTLSLSPGERATLSCRASQSVGDFYLAWYQQKPGQAPRLLIYGASSRATGIPDRFSGSGSGTDFTLTISRLEPEDFAVYYCKHYGWPPSFTFGQGTKVEIK
notes: IgG
B2: P6E01/H3.AQ (antibody, V domains shown)
VH: B1 VH with L105Q
VL: not shown
notes: IgG
B3: L1.GDF/L3.NY/H3.AL (antibody, V domains shown)
VH: B1 VH
VL: B1 VL with K90Q, G93N, W94Y
notes: IgG
B4: L1.GDF/L3.NY/H3.AQ (antibody, V domains shown)
VH: B1 VH with L105Q
VL: B1 VL with K90Q, G93N, W94Y
notes: IgG
B5: L1.GDF/L3.KW/H3.AQ (antibody, V domains shown)
VH: B1 VH with L105Q
VL: B1 VL
notes: IgG
B6: L1.GDF/L3.NY/P6E01 (antibody, V domains shown)
VH: B1 VH with A104S, L105G
VL: B1 VL with K90Q, G93N, W94Y
notes: IgG
B7: L1.GDF/L3.KW/H3.AP (antibody, V domains shown)
VH: B1 VH with L105P
VL: B1 VL
notes: IgG
B8: L1.GDF/L3.NY/H3.AP (antibody, V domains shown)
VH: B1 VH with L105P
VL: B1 VL with K90Q, G93N, W94Y
notes: IgG
B9: P6E01/P6E01 (antibody, V domains shown)
VH: B1 VH with A104S, L105G
VL: not shown
notes: IgG
B10: L3.PY/L1.PS/H3.YA (antibody, V domains shown)
VH: B1 VH with A103Y, L105G
VL: B1 VL with G30S, D31S, F32S, L34P, A35S, K90Q, G93P, W94Y
notes: IgG
B11: L3.PY/L3.KY/P6E01 (antibody, V domains shown)
VH: B1 VH with A104S, L105G
VL: B1 VL with G30S, D31S, F32S, H91Y, G93P, W94Y
notes: IgG
B12: L3.PY/L1.PS/H2.YQ (antibody, V domains shown)
VH: B1 VH with G53Y, S54Q, A104S, L105G
VL: B1 VL with G30S, D31S, F32S, L34P, A35S, K90Q, G93P, W94Y
notes: IgG
B13: L3.PY/L1.PS/P6E01 (antibody, V domains shown)
VH: B1 VH with A104S, L105G
VL: B1 VL with G30S, D31S, F32S, L34P, A35S, K90Q, G93P, W94Y
notes: IgG
B14: L3.PY/L1.PS/H3.TAQ (antibody, V domains shown)
VH: B1 VH with A97T, L105Q
VL: B1 VL with G30S, D31S, F32S, L34P, A35S, K90Q, G93P, W94Y
notes: IgG
B15: L3.PY/L1.PS/H3.AQ (antibody, V domains shown)
VH: B1 VH with L105Q
VL: B1 VL with G30S, D31S, F32S, L34P, A35S, K90Q, G93P, W94Y
notes: IgG
B16: L3.PY/L3.KF/P6E01 (antibody, V domains shown)
VH: B1 VH with A104S, L105G
VL: B1 VL with G30S, D31S, F32S, H91F, G93P, W94Y
notes: IgG
B17: L3.PY/L1.PS/H3.AE (antibody, V domains shown)
VH: B1 VH with L105E
VL: B1 VL with G30S, D31S, F32S, L34P, A35S, K90Q, G93P, W94Y
notes: IgG

Where a chain is given by its changes, count along the chain named.

Usually Kd stands for the concentration at which binding is half-saturated. For orientation: koff means the first-order rate constant of dissociation. What is called kon is a measure of how fast the partners come together.

The first assay has as its target T1, Human BCMA. Description: SPR, IgG immobilised, 25 C. Here is the method:
(§1) All experiments were performed on a Bio-Rad Proteon XPR36 surface Plasmon resonance biosensor (Bio-Rad, Hercules, Calif.). […] The analysis temperature for the immobilization was 25° C. and the running buffer was HBS-T+(10 mM HEPES, 150 mM NaCl, 0.05% Tween-20, pH 7.4). Channels were activated in the analyte (horizontal) direction by injecting a mixture of 1 mM ECD and 0.25 mM NHS for 3 minutes at a flow rate of 30 μL/min. IgGs were immobilized on the activated spots by injecting them in the ligand (vertical) direction at 20 μg/mL in 10 mM Acetate pH 4.5 buffer for 1.5 minutes at […]. The activated surfaces were blocked by injecting 1M ethanolamine, pH 8.5 in the analyte direction for 3 minutes at 30 μL/min.
(§2) The analysis temperature for the BCMA binding analysis was 37° C. or 25° C. in a running buffer of HBS-T+, supplemented with 1 mg/mL BSA. A kinetic titration method was employed for the interaction analysis as described in Abdiche, et al. Human BCMA (huBCMA) or cynomolgus monkey BCMA (cyBCMA) analyte was injected in the analyte direction using a series of injections from low to high concentration. The concentrations used were 0.08 nM, 0.4 nM, 2 nM, 10 nM and 50 nM (a 5-membered series, with a 5-fold dilution factor and top concentration of 50 nM). The association time for a given analyte dilution was two minutes. Immediately after the 50 nM BCMA injection, dissociation was monitored for 2 hours.
(§3) The sensorgrams were double-referenced and fit to a 1:1 Langmuir with mass transport kinetic titration model in BIAevaluation Software version 4.1.1 (GE Lifesciences, Piscataway, N.J.).
On the technique in general: SPR reads the build-up and loss of mass on a sensor chip optically.
As for B1, the Kd turned out to be 8.76 nM, the “T ½” value was 2.96 min, the koff came to 0.0039 s⁻¹ and the kon came out at 445000 M⁻¹ s⁻¹.

As for B2, the affinity, expressed as Kd, was 0.41 nM and the “T ½” value came out at 33.5 min.

B3: binding was put at a Kd of 4.44 nM, the “T ½” value stood at 2.87 min, the off-rate (koff) turned out to be 0.00403 s⁻¹ and the kon is 907000 M⁻¹ s⁻¹.

On to B4, for which the Kd was 0.73 nM, the “T ½” value came to 16 min, the koff worked out at 0.000722 s⁻¹ and the kon came out at 984000 M⁻¹ s⁻¹.

As for B5, binding was characterised by a dissociation constant (Kd) of 4.37 nM, the “T ½” value is 3.32 min, the koff stood at 0.00348 s⁻¹ and the kon is 797000 M⁻¹ s⁻¹.

Take B6: the affinity, expressed as Kd, was 3.7 nM; the “T ½” value turned out to be 1.95 min; the dissociation rate constant (koff) was 0.00592 s⁻¹; the kon was determined as 1.6e+06 M⁻¹ s⁻¹.

Regarding B7, the Kd is 3.93 nM, the “T ½” value came to 2.51 min, the koff was 0.00461 s⁻¹ and the kon turned out to be 1.17e+06 M⁻¹ s⁻¹.

In the case of B8, the Kd amounted to 1 nM, the “T ½” value is 8.21 min, the koff is 0.00141 s⁻¹ and the on-rate (kon) was found to be 1.41e+06 M⁻¹ s⁻¹.

Regarding B9, the affinity, expressed as Kd, was 4 nM and the “T ½” value came to 2.8 min.

For another assay, the target named is T2, cynomolgus monkey BCMA (cynomolgus monkey, UniProt A0A2K5UD97 1-53).
T2 construct: Soluble analyte in SPR; construct not described; also called cyBCMA; Cyno BCMA
T2 sequence (A0A2K5UD97 entry or part of it): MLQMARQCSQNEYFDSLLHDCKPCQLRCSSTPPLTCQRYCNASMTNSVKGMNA
In words: SPR, IgG immobilised, 25 C. The protocol: as §1, §2, §3
Regarding B1, the dissociation constant Kd is 56.7 nM, the “T ½” value worked out at 0.6 min, the koff amounted to 0.018 s⁻¹ and the kon came out at 318000 M⁻¹ s⁻¹.

As for B3, the Kd was determined as 24.3 nM, the “T ½” value was 0.5 min, the koff came out at 0.0219 s⁻¹ and the kon came to 900000 M⁻¹ s⁻¹.

On to B4, for which the Kd was 1.2 nM, the “T ½” value stood at 8.5 min, the koff was 0.00136 s⁻¹ and the kon came out at 1.18e+06 M⁻¹ s⁻¹.

With B5, the Kd came out at 7 nM, the “T ½” value worked out at 2 min, the koff was 0.00565 s⁻¹ and the kon turned out to be 802000 M⁻¹ s⁻¹.

For the molecule B6, the Kd was 6.4 nM, the “T ½” value stood at 1.5 min, the koff turned out to be 0.00767 s⁻¹ and the kon was found to be 1.2e+06 M⁻¹ s⁻¹.

As to B7, the affinity, expressed as Kd, was 24.9 nM; the “T ½” value came out at 0.6 min; the koff was 0.0203 s⁻¹; the kon came to 814000 M⁻¹ s⁻¹.

For B8, the affinity, expressed as Kd, was 5.2 nM; the “T ½” value turned out to be 1.6 min; the koff was determined as 0.00702 s⁻¹; the kon came to 1.36e+06 M⁻¹ s⁻¹.

For the next assay, the target named is T1, Human BCMA. In words: SPR, IgG immobilised, 37 C. The method in brief:
(§4)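 IgG amine-coupled to the chip; human or cynomolgus BCMA analyte injected by kinetic titration at 0.08–50 nM (2 min each), 2 h dissociation, in HBS-T+ with 1 mg/mL BSA, pH 7.4, at 37° C or 25° C. Double-referenced sensorgrams fit to 1:1 Langmuir with mass transport.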
On to B10, for which the Kd was 2.95 nM, the “T ½” value stood at 1.28 min, the koff is 0.00905 s⁻¹ and the kon worked out at 3.07e+06 M⁻¹ s⁻¹.

Consider B11, for which the Kd stood at 0.34 nM, the “T ½” value was determined as 10.7 min, the koff came out at 0.00109 s⁻¹ and the kon came to 3.18e+06 M⁻¹ s⁻¹.

Take B12: binding was put at a Kd of 1.28 nM, the “T ½” value came to 2.69 min, the koff is 0.0043 s⁻¹ and the kon was 3.35e+06 M⁻¹ s⁻¹.

On to B13, for which binding was put at a Kd of 0.45 nM, the “T ½” value worked out at 10.2 min, the off-rate (koff) stood at 0.00113 s⁻¹ and the kon worked out at 2.49e+06 M⁻¹ s⁻¹.

In the case of B14, the Kd came to 0.76 nM, the “T ½” value was determined as 4.7 min, the koff is 0.00246 s⁻¹ and the on-rate (kon) turned out to be 3.25e+06 M⁻¹ s⁻¹.

B15: the Kd came out at 0.55 nM, the “T ½” value turned out to be 6.46 min, the koff worked out at 0.00179 s⁻¹ and the kon came out at 3.26e+06 M⁻¹ s⁻¹.

Take B16: the Kd was determined as 0.72 nM, the “T ½” value came to 5.56 min, the dissociation rate constant (koff) stood at 0.00208 s⁻¹ and the kon was found to be 2.88e+06 M⁻¹ s⁻¹.

On to B17, for which binding was characterised by a dissociation constant (Kd) of 0.46 nM, the “T ½” value came to 7.93 min, the koff turned out to be 0.00146 s⁻¹ and the kon stood at 3.14e+06 M⁻¹ s⁻¹.

A further assay concerns the target T2, cynomolgus monkey BCMA. In words: SPR, IgG immobilised, 37 C. An outline of the steps: as §4
For the molecule B10, the affinity, expressed as Kd, was 5.65 nM; the “T ½” value is 1.16 min; the koff came out at 0.00998 s⁻¹; the on-rate constant (kon) is 1.77e+06 M⁻¹ s⁻¹.

Regarding B11, the Kd is 2.21 nM, the “T ½” value was 2.3 min, the koff is 0.00502 s⁻¹ and the kon is 2.27e+06 M⁻¹ s⁻¹.

For B12, the Kd came out at 1.87 nM, the “T ½” value came to 3.09 min, the off-rate (koff) worked out at 0.00374 s⁻¹ and the kon was found to be 2e+06 M⁻¹ s⁻¹.

Turning to B13, the affinity, expressed as Kd, was 2.79 nM; the “T ½” value came to 1.91 min; the koff turned out to be 0.00606 s⁻¹; the kon stood at 2.17e+06 M⁻¹ s⁻¹.

With B14, binding was characterised by a dissociation constant (Kd) of 2.14 nM, the “T ½” value was determined as 2.09 min, the koff came out at 0.00552 s⁻¹ and the kon came to 2.58e+06 M⁻¹ s⁻¹.

For the molecule B15, the affinity, expressed as Kd, was 1.72 nM; the “T ½” value came out at 2.67 min; the koff came to 0.00433 s⁻¹; the kon is 2.52e+06 M⁻¹ s⁻¹.

In the case of B16, binding was characterised by a dissociation constant (Kd) of 3.48 nM, the “T ½” value turned out to be 1.39 min, the koff amounted to 0.0083 s⁻¹ and the kon stood at 2.39e+06 M⁻¹ s⁻¹.

B17: the Kd worked out at 1.68 nM, the “T ½” value worked out at 2.8 min, the dissociation rate constant (koff) was 0.00413 s⁻¹ and the kon was 2.46e+06 M⁻¹ s⁻¹.
